In patent publication US20110070610:

B1: pACSH362 protease (SEQ ID NO:10 tagged HAV18 3C protease) (protein)
chain: MKVILLRDVPKIGKKGEIKEVSDGYARNYLIPRGFAKEYTEGLERAIKHEKEIEKRKKEREREESEKILKELKKRTHVVKVKAGEGGKIFGAVTAATVAEEISKTTGLKLDKRWFKLDKPIKELGEYSLEVSLPGGVKDTIKIRVEREESSSGSGSGSGSTLEIAGLVRKNLVQFGVGEKNGCVRWVMNALGVKDDWLLVPSHAYKFEKDYEMMEFYFNRGGTYYSISAGNVVIQSLDVGFQDVVLMKVPTIPKFRDITEHFIKKGDVPRALNRLATLVTTVNGTPMLISEGPLKMEEKATYVHKKNDGTTVDLTVDQAWRGKGEGLPGMCGGALVSSNQSIQNAILGIHVAGGNSILVAKLVTQEMFQNIDKKIESQ
B2: pACSH307 protease (SEQ ID NO:10 tagged TEV protease) (protein)
chain: MKVILLRDVPKIGKKGEIKEVSDGYARNYLIPRGFAKEYTEGLERAIKHEKEIEKRKKEREREESEKILKELKKRTHVVKVKAGEGGKIFGAVTAATVAEEISKTTGLKLDKRWFKLDKPIKELGEYSLEVSLPGGVKDTIKIRVEREESSSGSSGSSGSSGESLFKGPRDYNPISSTICHLTNESDGHTTSLYGIGFGPFIITNKHLFRRNNGTLLVQSLHGVFKVKNTTTLQQHLIDGRDMIIIRMPKDFPPFPQKLKFREPQREERICLVTTNFQTKSMSSMVSDTSCTFPSSDGIFWKHWIQTKDGQCGSPLVSTRDGFIVGIHSASNFTNTNNYFTSVPKNFMELLTNQEAQQWVSGWRLNADSVLWGGHKVFMVKPEEPFQPVKEATQLMN

Legend:
[1] = target: T1, pACSH360 fusion protein (S661 peptide with N-terminal SEQ ID NO:19 tag and HAV18 3C cleavage site linker)
T1 chain: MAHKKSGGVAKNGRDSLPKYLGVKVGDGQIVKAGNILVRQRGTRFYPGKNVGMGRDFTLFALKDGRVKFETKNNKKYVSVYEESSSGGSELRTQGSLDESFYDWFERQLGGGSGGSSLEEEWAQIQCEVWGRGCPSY

[2] = target: T2, pACSH248 fusion protein (S661 peptide with N-terminal SEQ ID NO:19 tag and TEV cleavage site linker)
T2 chain: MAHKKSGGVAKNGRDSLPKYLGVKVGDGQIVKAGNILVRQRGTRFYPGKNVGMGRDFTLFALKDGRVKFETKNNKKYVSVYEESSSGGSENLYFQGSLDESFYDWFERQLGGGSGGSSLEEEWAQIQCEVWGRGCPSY

| Protein | cleavage of fusion protein, LC-MS, 7 hours at 37° C., enzyme to substrate ratio 1:10 or 1:50 [1] | cleavage of fusion protein, LC-MS, 8 hours, enzyme to substrate ratio 1:1 [2] |
| --- | --- | --- |
| B1 | A fragment representing the released S661 peptide was observed for both ratios |  |
| B2 |  | after incubation for 8 hours with an enzyme to substrate ration of 1:1, the major part of the S661 peptide was released from the pACSH248 fusion protein |
